Test results taken from paper PMC8278288 (Frontiers in Immunology, 2021).

What was measured:
[1] = target: T1, IL-7 receptor ectodomain (rhIL-7Rα) (human, UniProt P16871 21-239); experiment: SPR
T1 chain: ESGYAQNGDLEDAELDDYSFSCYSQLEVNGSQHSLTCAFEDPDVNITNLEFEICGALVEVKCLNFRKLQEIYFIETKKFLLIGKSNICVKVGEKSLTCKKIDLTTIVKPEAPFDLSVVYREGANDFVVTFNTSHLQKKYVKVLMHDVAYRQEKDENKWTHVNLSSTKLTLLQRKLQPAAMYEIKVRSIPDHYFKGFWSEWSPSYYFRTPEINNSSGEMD

[2] = target: T2, N-terminal fragment of MMP-9-cleaved human IL-7 produced in E. coli (IL-7*) (human, UniProt P13232 26-128); experiment: non-reducing SDS-PAGE; IL-7 digested with MMP-9, electrophoresis with SDS and without reducing agent, compared with reducing conditions; details: both partners purified
T2 construct: Interleukin-7, human, N-terminal fragment up to Ala128 (MMP-9 cleavage between Ala128 and Leu129); source: bought: Peprotech (produced in E. coli), then digested with MMP-9
T2 sequence (looked up): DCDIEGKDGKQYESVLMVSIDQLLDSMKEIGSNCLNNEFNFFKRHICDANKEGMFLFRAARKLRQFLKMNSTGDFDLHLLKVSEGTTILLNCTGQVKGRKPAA

[3] = target: T3, N-terminal fragment of MMP-9-cleaved human IL-7 produced in HEK-293 cells (IL-7*) (human, UniProt P13232 26-128, N-linked oligosaccharides (sites shown in Figure 1D)); experiment: as above; details: both partners purified
T3 construct: Interleukin-7, human, N-terminal fragment up to Ala128 (MMP-9 cleavage between Ala128 and Leu129); source: bought: Biolegend (produced in human HEK-293 cells), then digested with MMP-9
T3 sequence (looked up): T2 sequence (looked up)

[4] = target: T4, N-terminal fragment of MMP-9-cleaved His-tagged human IL-7 produced in insect cells (IL-7*) (human, UniProt P13232 26-128, N-linked glycosylation (partially glycosylated; sites shown in Figure 1D)); experiment: pull-down; His-tagged IL-7 (C-terminal tag) digested with MMP-9, histidine tag pull-down with Ni-NTA magnetic microbeads under native conditions; bound and non-bound proteins resolved by reducing SDS-PAGE; details: both partners purified
T4 construct: Interleukin-7, human, N-terminal fragment up to Ala128 (MMP-9 cleavage between Ala128 and Leu129); also called N-terminal fragment of IL-7; source: bought: Novus (produced in insect cells), then digested with MMP-9
T4 sequence (looked up): T2 sequence (looked up)

B1: MMP-9-cleaved recombinant human IL-7 produced in E. coli (cIL-7) (complex)
chain 1: T2 sequence (looked up)
chain 2: LGEAQPTKSLEENKSLKEQKKLNDLCFLKRLLQEIKTCWNKILMGTKEH
[1]
  Kd: 64 nM

B2: C-terminal fragment of MMP-9-cleaved human IL-7 produced in E. coli (IL-7**) (domain or fragment, UniProt P13232 129-177, looked up)
chain: B1 chain 2
notes: Interleukin-7, human, C-terminal fragment from Leu129 (neo-N-terminus LGEAQ); source: bought: Peprotech (produced in E. coli), then digested with MMP-9
[2]
  binding result: binds

B3: MMP-9-cleaved recombinant human IL-7 produced in human HEK-293 cells (cIL-7) (complex)
chain 1: T2 sequence (looked up)
chain 2: B1 chain 2
modifications: N-linked oligosaccharides (sites shown in Figure 1D)
[1]
  Kd: 290 nM

B4: C-terminal fragment of MMP-9-cleaved human IL-7 produced in HEK-293 cells (IL-7**) (domain or fragment, UniProt P13232 129-177, looked up)
chain: B1 chain 2
notes: Interleukin-7, human, C-terminal fragment from Leu129 (neo-N-terminus LGEAQ); source: bought: Biolegend (produced in human HEK-293 cells), then digested with MMP-9
[3]
  binding result: binds

B5: C-terminal fragment of MMP-9-cleaved His-tagged human IL-7 produced in insect cells (IL-7**) (domain or fragment, UniProt P13232 129-177, looked up)
chain: B1 chain 2
notes: Interleukin-7, human, C-terminal fragment from Leu129 (neo-N-terminus LGEAQ); Held on nickel beads by the C-terminal His tag; source: bought: Novus (produced in insect cells), then digested with MMP-9; not shown: His tag, C-terminal, kept
[4]
  binding result: binds
